Assay results from patent publication US7217548B2, “N-acetylglucosaminlytransferase and polynucleotide encoding the same” (National Institute of Advanced Industrial Science and …, priority 2000, dated 2007).

Substrate: CC(=O)N[C@@H](C)C(=O)N[C@@H](C)C(=O)N1CCC[C@H]1C(=O)N[C@H](C(=O)N1CCC[C@H]1C(=O)N[C@H](C(=O)N[C@@H](C)C(=O)N[C@@H](C)C(=O)N1CCC[C@H]1C(N)=O)C(C)C)[C@@H](C)O[C@H]1O[C@H](CO)[C@@H](O)[C@H](O)[C@@H]1O
Experiment: Substrate specificity and kinetic parameters of solubilized human OMGnT enzyme (S)
Type: biochemical
Conditions: other: 125 mM MOPS pH7.3, 0.2 mM UDP-GlcNAc, 7.5 mM MnCl2, 37° C., 2 hours, pH 7.3
Procedure: […] […] The reaction mixture was then filtered with a filter Ultrafree-MC (Millipore) having a pore size of 0.22 μm to remove solids, and analyzed by Wakopak 5C18-200 column (4.6×250 mm, Wako Pure Chemical Industries, Ltd.). The separation was carried out using concentration gradient with Solution A and Solution B at a flow rate of 1.0 ml/min. […] Peptide detection was carried out at 214 nm, and the radioactivity of each fraction was assayed using a liquid scintillation counter.
The activity of GnT-1 was assayed with a method by Yoshida et al. [Yoshida, S., Suzuki, M., Yamano, S., Takeuchi, M., Ikenaga, H., Kioka, N., Sakai, H., and Komano, T., Glycobiology, (1999), 9, 53–58] as described below. A 20 μl reaction solution was prepared by adding an enzyme source thereto so as to have a final concentration of 100 mM MES (pH 6.0), 20 mM MnCl2, 5 μM Manα1–6(Manα1–3)Manα1–6(Manα1–3)Manβ1–4GlcNAcβ1–4GlcNAc-PA(M5GN2-PA; Takara Shuzo, PA-Sugar Chain 017), 1 mM UDP-GlcNAc, 100 mM GlcNAc, 5 mM AMP, 1% Triton X-100, and 0.2% BSA. The reaction solution was incubated at 37° C. for 1 hour, and the reaction was terminated in boiling water. Thereafter, the reaction solution was analyzed by a reverse phase HPLC (Cosmosil 5C18-AR column) available from Nacalai Tesque. […]

B1: His-Xpress-sOMGnT(S) (Homo sapiens; M623V) (protein)
chain: SSAEEAECHWADTELNRRRRRFCSKVEGYGSVCSCKDPTPIEFSPDPLPDNKVLNVPVAVIAGNRPNYLYRMLRSLLSAQGVSPQMITVFIDGYYEEPMDVVALFGLRGIQHTPISIKNARVSQHYKASLTATFNLFPEAKFAVVLEEDLDIAVDFFSFLSQSIHLLEEDDSLYCISAWNDQGYEHTAEDPALLYRVETMPGLGWVLRRSLYKEELEPKWPTPEKLWDWDMWMRMPEQRRGRECIIPDVSRSYHFGIVGLNMNGYFHEAYFKKHKFNTVPGVQLRNVDSLKKEAYEVEVHRLLSEAEVLDHSKNPCEDSFLPDTEGHTYVAFIRMEKDDDFTTWTQLAKCLHIWDLDVRGNHRGLWRLFRKKNHFLVVGVPASPYSVKKPPSVTPIFLEPPPKEEGAPGAPEQT
notes: Ig kappa chain secretory signal (N); made in house; host or cells: HEK293T (transient, secreted into serum-free medium)
Km: 1360 µM
